# B1: Interferon-induced helicase C domain-containing protein 1 (Homo sapiens), Q9BYX4 (parent)
# chain: MSNGYSTDENFRYLISCFRARVKMYIQVEPVLDYLTFLPAEVKEQIQRTVATSGNMQAVELLLSTLEKGVWHLGWTREFVEALRRTGSPLAARYMNPELTDLPSPSFENAHDEYLQLLNLLQPTLVDKLLVRDVLDKCMEEELLTIEDRNRIAAAENNGNESGVRELLKRIVQKENWFSAFLNVLRQTGNNELVQELTGSDCSESNAEIENLSQVDGPQVEEQLLSTTVQPNLEKEVWGMENNSSESSFADSSVVSESDTSLAEGSVSCLDESLGHNSNMGSDSGTMGSDSDEENVAARASPEPELQLRPYQMEVAQPALEGKNIIICLPTGSGKTRVAVYIAKDHLDKKKKASEPGKVIVLVNKVLLVEQLFRKEFQPFLKKWYRVIGLSGDTQLKISFPEVVKSCDIIISTAQILENSLLNLENGEDAGVQLSDFSLIIIDECHHTNKEAVYNNIMRHYLMQKLKNNRLKKENKPVIPLPQILGLTASPGVGGATKQAKAEEHILKLCANLDAFTIKTVKENLDQLKNQIQEPCKKFAIADATREDPFKEKLLEIMTRIQTYCQMSPMSDFGTQPYEQWAIQMEKKAAKEGNRKERVCAEHLRKYNEALQINDTIRMIDAYTHLETFYNEEKDKKFAVIEDDSDEGGDDEYCDGDEDEDDLKKPLKLDETDRFLMTLFFENNKMLKRLAENPEYENEKLTKLRNTIMEQYTRTEESARGIIFTKTRQSAYALSQWITENEKFAEVGVKAHHLIGAGHSSEFKPMTQNEQKEVISKFRTGKINLLIATTVAEEGLDIKECNIVIRYGLVTNEIAMVQARGRARADESTYVLVAHSGSGVIEHETVNDFREKMMYKAIHCVQNMKPEEYAHKILELQMQSIMEKKMKTKRNIAKHYKNNPSLITFLCKNCSVLACSGEDIHVIEKMHHVNMTPEFKELYIVRENKALQKKCADYQINGEIICKCGQAWGTMMVHKGLDLPCLKIRNFVVVFKNNSTKKQYKKWVELPITFPNLDYSECCLFSDED
# partner: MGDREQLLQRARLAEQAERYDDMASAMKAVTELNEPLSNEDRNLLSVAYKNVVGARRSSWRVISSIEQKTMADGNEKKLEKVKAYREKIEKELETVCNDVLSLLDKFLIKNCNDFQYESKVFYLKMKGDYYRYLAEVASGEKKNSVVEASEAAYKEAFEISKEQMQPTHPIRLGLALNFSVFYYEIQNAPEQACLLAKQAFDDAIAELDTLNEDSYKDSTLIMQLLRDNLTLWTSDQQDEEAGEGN
# B2: Interferon-induced helicase C domain-containing protein 1 (Homo sapiens), Q9BYX4 (parent)
# chain: B1 chain
# Variants of: B1
# Settings: with 1433f_human YWHAH
row,effect of a mutation on the interaction,Variant
1,with no effect,K68R
2,with no effect,K23R;K43R

# Variants of: B2
# Settings: with isg15_human ISG15, P05161
# Chain of isg15_human ISG15, P05161 (P05161 whole entry): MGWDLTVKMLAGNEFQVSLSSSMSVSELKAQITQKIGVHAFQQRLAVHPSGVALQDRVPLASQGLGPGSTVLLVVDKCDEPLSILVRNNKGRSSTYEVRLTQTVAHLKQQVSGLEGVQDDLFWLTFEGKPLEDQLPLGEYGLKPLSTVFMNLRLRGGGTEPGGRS
row,effect of a mutation on the interaction,Variant
1,with no effect,K137R
2,with no effect,K169R
3,increasing interaction strength,K235R
4,with no effect,K174R
5,decreasing interaction strength,K23R

# Further lines, the variant ahead of its results:
row,Variant,effect of a mutation on the interaction
1,K23R;K43R,disrupting interaction strength
2,K128R,with no effect
3,K68R,decreasing interaction strength
4,K43R,decreasing interaction strength
